Results on one molecule are retold here after US20220289855A1 (University of California, published 2022).

The assay deals with T1, integrin α4β1 (mouse, UniProt Q00651 41-1039; P09055 21-798).
T1 construct: whole, on cells
In words: flow cytometry, soluble ligand on mouse Tregs. How it is done: Splenic lymphocytes were isolated from Foxp3^GFP mice and were washed and resuspended in HBSS containing 0.1% BSA and 1 mM Ca²⁺/Mg²⁺, prior to incubation with integrin ligands for […] at 37° C. in the presence of IL-2 (10 ug/ml), rat-PC61 (5 ug/ml, Bioxcell), rat-rIgG (5 ug/ml, Bioxcell), murine-PC61 (5 ug/ml) and murine-IgG (5 ug/ml, Bioxcell). Cells were then incubated with AlexFluor647-conjugated anti-human IgG (1:200) for […] at 4° C. Then cells were washed twice before flow cytometry analysis using an Accuri C6 Plus (BD Biosciences). Data were analyzed using FlowJo software.

T1 sequence (Q00651 41-1039, chain 1 of 2): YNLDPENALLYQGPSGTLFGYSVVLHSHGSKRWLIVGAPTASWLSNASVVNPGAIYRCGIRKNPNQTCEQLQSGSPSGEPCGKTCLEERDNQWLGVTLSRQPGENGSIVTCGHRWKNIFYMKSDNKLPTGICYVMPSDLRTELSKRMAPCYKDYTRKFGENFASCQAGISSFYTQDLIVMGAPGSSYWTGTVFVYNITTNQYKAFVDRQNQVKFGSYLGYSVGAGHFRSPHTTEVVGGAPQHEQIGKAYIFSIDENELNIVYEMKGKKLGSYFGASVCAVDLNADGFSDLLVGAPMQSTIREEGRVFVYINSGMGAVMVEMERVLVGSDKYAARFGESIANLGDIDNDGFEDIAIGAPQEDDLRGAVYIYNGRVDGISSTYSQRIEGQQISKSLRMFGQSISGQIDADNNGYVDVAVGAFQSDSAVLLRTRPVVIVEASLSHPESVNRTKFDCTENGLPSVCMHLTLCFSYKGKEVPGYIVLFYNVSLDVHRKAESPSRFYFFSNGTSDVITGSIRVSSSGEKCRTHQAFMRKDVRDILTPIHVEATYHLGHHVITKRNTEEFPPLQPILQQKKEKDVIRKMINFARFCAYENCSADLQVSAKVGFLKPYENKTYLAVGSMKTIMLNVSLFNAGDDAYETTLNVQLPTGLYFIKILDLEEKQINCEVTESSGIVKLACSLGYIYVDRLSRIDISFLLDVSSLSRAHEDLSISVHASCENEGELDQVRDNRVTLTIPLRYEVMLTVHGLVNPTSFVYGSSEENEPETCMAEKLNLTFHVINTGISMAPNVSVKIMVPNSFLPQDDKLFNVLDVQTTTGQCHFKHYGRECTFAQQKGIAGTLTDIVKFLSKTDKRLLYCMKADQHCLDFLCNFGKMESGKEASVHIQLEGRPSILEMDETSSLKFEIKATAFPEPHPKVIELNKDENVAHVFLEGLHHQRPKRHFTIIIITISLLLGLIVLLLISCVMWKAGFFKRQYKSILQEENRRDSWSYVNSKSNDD
T1 sequence (P09055 21-798, chain 2 of 2): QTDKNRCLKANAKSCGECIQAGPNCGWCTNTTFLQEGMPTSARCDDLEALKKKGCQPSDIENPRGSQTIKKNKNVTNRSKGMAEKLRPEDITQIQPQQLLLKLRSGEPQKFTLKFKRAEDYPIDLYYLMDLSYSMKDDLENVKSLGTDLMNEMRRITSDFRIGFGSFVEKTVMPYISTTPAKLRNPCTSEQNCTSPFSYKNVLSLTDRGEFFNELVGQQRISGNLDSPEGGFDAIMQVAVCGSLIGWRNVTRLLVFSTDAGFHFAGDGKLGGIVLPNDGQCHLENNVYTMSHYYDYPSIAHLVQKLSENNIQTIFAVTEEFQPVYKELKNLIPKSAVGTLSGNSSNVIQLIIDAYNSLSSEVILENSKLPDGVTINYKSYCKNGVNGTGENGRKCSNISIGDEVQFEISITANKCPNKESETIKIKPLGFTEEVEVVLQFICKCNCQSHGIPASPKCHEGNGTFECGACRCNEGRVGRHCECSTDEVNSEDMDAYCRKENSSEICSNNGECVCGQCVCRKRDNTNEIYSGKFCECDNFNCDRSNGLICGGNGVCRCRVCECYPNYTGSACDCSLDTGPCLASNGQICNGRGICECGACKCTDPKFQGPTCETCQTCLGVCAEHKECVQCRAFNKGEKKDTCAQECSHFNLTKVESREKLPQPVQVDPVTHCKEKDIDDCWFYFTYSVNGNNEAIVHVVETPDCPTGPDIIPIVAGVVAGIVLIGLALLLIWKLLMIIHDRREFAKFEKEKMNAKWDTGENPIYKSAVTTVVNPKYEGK

B1: purified mouse VCAM-Fc (Fc fusion, UniProt P29533 25-698, looked up)
chain: FKIEISPEYKTIAQIGDSMALTCSTTGCESPLFSWRTQIDSPLNAKVRTEGSKSVLTMEPVSFENEHSYLCTATCGSGKLERSIHVDIYSFPKDPEIQFSGPLEVGKPVTVKCLAPDIYPVYRLEIDLFKGDQLMNRQEFSSEEMTKSLETKSLEVTFTPVIEDIGKALVCRAKLHIDQIDSTLKERETVKELQVYISPRNTTISVHPSTRLQEGGAVTMTCSSEGLPAPEIFWGRKLDNEVLQLLSGNATLTLIAMRMEDSGVYVCEGVNLIGRDKAEVELVVQEKPFIVDISPGSQVAAQVGDSVVLTCAAIGCDSPSFSWRTQTDSPLNGVVRNEGAKSTLVLSSVGFEDEHSYLCAVTCLQRTLEKRTQVEVYSFPEDPVIKMSGPLVHGRPVTVNCTVPNVYPFDHLEIELLKGETTLMKKYFLEEMGIKSLETKILETTFIPTIEDTGKSLVCLARLHSGEMESEPKQRQSVQPLYVNVAPKETTIWVSPSPILEEGSPVNLTCSSDGIPAPKILWSRQLNNGELQPLSENTTLTFMSTKRDDSGIYVCEGINEAGISRKSVELIIQVSPKDIQLTVFPSKSVKEGDTVIISCTCGNVPETWIILKKKAKTGDMVLKSVDGSYTIRQAQLQDAGIYECESKTEVGSQLRSLTLDVKGKEHNKDYFSPE
notes: also called VCAM-1; soluble VCAM-1; not shown: Fc part, detected with anti-Human Fc
Regarding B1, the binding result is “binds”.
